We go through two substances from paper PMC4801485 (Biochemistry, 2015).

Experiment [1] addresses T1, CypA (Homo sapiens, UniProt P62937). Description: 15N TROSY CPMG-RD of ligand-saturated CypA. The experiment is classed as biochemical.
The target of experiment [2] is T1, CypA. The conditions noted are these: percent weaker than GSFGPDLRAGD; cited from earlier work.
For experiment [3], the target named is T1, CypA. The note with it: cited from earlier work.
Where [4] appears, read: 2H,15N CypA, saturating TA-peptide (6 mM), 10 °C.

Entries after “also recorded” stand apart in the source; their conditions may differ. Where no end group is shown, it is not given here.

T1 sequence (P62937 whole entry): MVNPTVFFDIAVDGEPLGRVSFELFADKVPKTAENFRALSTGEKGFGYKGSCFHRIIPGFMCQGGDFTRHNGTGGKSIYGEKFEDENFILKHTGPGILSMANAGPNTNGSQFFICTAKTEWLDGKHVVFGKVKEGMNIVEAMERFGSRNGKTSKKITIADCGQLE

For the substance “TA-peptide: substrate for which the G-P peptide bond in the peptide is replaced by a thioamide bond (GSFGPDLRAGD; also: G-P peptide bond replaced by thioamide bond)”, in experiment [1] (setting [4]), the “chemical exchange rate throughout most of the active site” value was ~ 300 s^−1; the “rate of motions, loop residues ~65–78 and ~108–110” value is reported as ~ 2000 s^−1. The “active site dynamics as compared to CypA:peptide complex” value in experiment [1] (2H,15N CypA, saturating TA-peptide, much of the active site) is reported as “slowed dramatically”. For the same substance, the “binding relative to the standard GSFGPDLRAGD peptide (weaker)” value in experiment [2] is listed as ~ 50%. Besides, the “isomerization by CypA” value in experiment [3] is “not isomerized by CypA”.
On to “cyclosporine A [CsA, reference compound]”, for which the “exchange throughout most of the active site (CsA)” value in experiment [1] (2H,15N CypA (0.5 mM), CsA 0.7 mM, 10 °C) is listed as “quenched by CsA throughout most of the active site; also recorded: completely quenched”.
